In publication PMC8362889 one finds response data, which are given here for three substances.

The assay concerns the target 2-azido-ATP (2-N3-ATP-biotin-long chain-hydrazone). Briefly: photoaffinity labeling with 2-azido-ATP. The conditions noted are these: 2.0 μg of full-length AsphyA protein (∼0.16 μM), wild-type labeling at 100 μM set as 100%, read off a plot.
[1] abbreviates: 10 µM 2-azido-ATP, parent: est. 40.
Where [2] appears, read: 20 µM 2-azido-ATP, parent: est. 63.
[3] abbreviates: 50 µM 2-azido-ATP, parent: est. 74.
[4] abbreviates: 100 µM 2-azido-ATP, parent: est. 100.

Consider “Avena sativa phytochrome A, wild type, full-length recombinant protein with C-terminal strep-tag T418V”, for which the response is, setting by setting: under setting [1], 82%; under setting [2], 120%; under setting [3], 140%; under setting [4], 140%.
“Avena sativa phytochrome A, wild type, full-length recombinant protein with C-terminal strep-tag K411R”: the response by setting is: under setting [1], 91%; under setting [2], 120%; under setting [3], 140%; under setting [4], 150%.
“Avena sativa phytochrome A, wild type, full-length recombinant protein with C-terminal strep-tag K411E”: the response under setting [1] was found to be 61%, the response under setting [2] came out at 75%, the response under setting [3] amounted to 92% and the response under setting [4] amounted to 110%.
